Target: the molecule itself
Test: single-molecule pulldown (SiMPull) with photobleaching step counting; HEK 293T cells surface-labelled with BG-LD555, lysed in 1.2% IGEPAL, diluted in 0.1% IGEPAL buffer; HA-SNAP constructs captured by biotinylated anti-HA antibody on NeutrAvidin/PEG slides; TIRF; percent dimerization = two-step bleaching min-max normalised (5% background, 55% for full-length mGluR2); in some experiments saturating ligands (TASP, MNI …)

B1: HA-SNAP-mGluR3-C127A (receptor, rat, UniProt P31422 23-879, looked up)
chain: LGDHNFMRREIKIEGDLVLGGLFPINEKGTGTEECGRINEDRGIQRLEAMLFAIDEINKDNYLLPGVKLGVHILDTCSRDTYALEQSLEFVRASLTKVDEAEYMAPDGSYAIQENIPLLIAGVIGGSYSSVSIQVANLLRLFQIPQISYASTSAKLSDKSRYDYFARTVPPDFYQAKAMAEILRFFNWTYVSTVASEGDYGETGIEAFEQEARLRNICIATAEKVGRSNIRKSYDSVIRELLQKPNARVVVLFMRSDDSRELIAAANRVNASFTWVASDGWGAQESIVKGSEHVAYGAITLELASHPVRQFDRYFQSLNPYNNHRNPWFRDFWEQKFQCSLQNKRNHRQVCDKHLAIDSSNYEQESKIMFVVNAVYAMAHALHKMQRTLCPNTTKLCDAMKILDGKKLYKEYLLKINFTAPFNPNKGADSIVKFDTFGDGMGRYNVFNLQQTGGKYSYLKVGHWAETLSLDVDSIHWSRNSVPTSQCSDPCAPNEMKNMQPGDVCCWICIPCEPYEYLVDEFTCMDCGPGQWPTADLSGCYNLPEDYIKWEDAWAIGPVTIACLGFLCTCIVITVFIKHNNTPLVKASGRELCYILLFGVSLSYCMTFFFIAKPSPVICALRRLGLGTSFAICYSALLTKTNCIARIFDGVKNGAQRPKFISPSSQVFICLGLILVQIVMVSVWLILETPGTRRYTLPEKRETVILKCNVKDSSMLISLTYDVVLVILCTVYAFKTRKCPENFNEAKFIGFTMYTTCIIWLAFLPIFYVTSSDYRVQTTTMCISVSLSGFVVLGCLFAPKVHIVLFQPQKNVVTHRLHLNRFSVSGTATTYSQSSASTYVPTVCNGREVLDSTTSSL
modifications: SNAP tag labelled with BG-LD555 (BG-LD655 in two-colour SiMPull)
notes: mGluR3, full-length receptor with the intersubunit disulfide cysteine of the LBD mutated; source: HEK 293T, transfected, in lysate; not shown: HA, N-terminal, kept; SNAP, N-terminal, kept
fold reduction in dimerization against SNAP-mGluR3: 2 fold

From paper PMC8102066, “Differences in interactions between transmembrane domains tune the activation of metabotropic glutamate receptors” (eLife, 2021)
